Laboratory results as given in PMC9712074 (Cell Reports, 2022).

Target: SARS-CoV-2 Omicron BA.1 RBD (SARS-CoV-2 Omicron BA.1, strain)

Binder	binding result
BD55-3372 (antibody, V domains shown) VH: EVHLVESGGGLVKPGGSLRLSCAASGFTFSNYAMNWVRQAPGKGLQWVSSITGSSSFIFYADSVKGRFTIVRDNAQNSLYLQMNSLRDEDTAVYYCARERDDYDTRLDWGQGTLVTVSS VL: QPMLTQPPSVSGAPGQTVTISCVGSSSNIGAGYEVHWYQQLPGTAPKRLLSGNSDRPSGVPDRFSGSKSGTSASLAITGLQADDEADYYCQSYDSSLSLSAVVFGGGTKLTVL	binds
BD55-3152 (antibody, V domains shown) VH: QVQLVQSGAEVKKPGASVIVSCKASGYRFISHYIHWVRQAPGQGLEWMGKIDPSGRGTTYAQKLQGRVSVTRDTSTSSVYMALSGLRSDDTAVYYCARDRFPLSDPYVWGSPLGGLDVWGQGTTVIVSS VL: SYDLTQPPSVSVSPGQTARITCSGDALPSQYVYWYQQRPGQAPVLVMYKDSERPPGIPERFSGSTSGTTATLTITGVQAEDEADYYCQSADASTTYHVFGGGTKVTVV	binds

Target: SARS-CoV-2 (WT) Spike RBD Protein (His Tag) (SARS-CoV-2 ancestral (Wuhan-Hu-1), UniProt P0DTC2)

Binder	binding result
BD55-5263 (antibody, V domains shown) VH: QVQLVQSGAEVKKPGASVKVSCKGSGYIFTNYGVSWVRQAPGQGLECMGWISAYNGNTDYTQKFQGRVTMTTDTSTSTAYMELRSLTSDDTAVYYCARAAHNWGPEDAFDIWGQGSMVTVSS VL: not shown	binds
BD55-5264 (antibody, V domains shown) VH: QVQLVQSGAEVKKPGASVKVSCKVSGYTLTKFSIHWVRQGHGKGLEWMGGFDIGEGGTIYAQKFQGRVTMTEDTSTDTSYMELSSLRSEDTAMYYCATDGEYSSGWAGVKLWGQGTLVTVSS VL: DIQMTQSPSTLSASVGDRVTITCRASQSISSWLAWYQQKPGKAPKLLIYKASSLESGVPSRFSGSGSGTEFTLTISSLQPDDFATYYCQQCDSYPWTFGQGTKVEIK	binds
BD55-5276 (antibody, V domains shown) VH: EVHLEESGGGLVHPGRSLRLSCAASGFTLDEYAMHWVRRAPGKGLEWVSGISWNSGARGYADSVKGRFTISRDNAKNSLYLQMNSLRAEDTAFYYCAKDNSHGSGTAWDWLDSWGQGTLVTVSS VL: NFMLTQPHSVSESPGKTVTISCTRSSGTITNNYVQWYRQRPGSSPTTVIFEDNQRPSGVPDRFSGSIDSSSNSASLTISGLKTEDEADYYCQSHDSSNWVFGGGTKLTVL	binds
BD55-5268 (antibody, V domains shown) VH: QVQLQQRGAGLLRPSETLSLTCDVSGGSFSGYYWNWVRQPPGKGLEWIGDIDLAGDNYNPSLKSRVTMSIDASKNQFSLRLSSVTAADTAVYFCVRAPNLGWFGPKQGAFDLWGQGTVVIVSS VL: not shown	binds
BD55-5265 (antibody, V domains shown) VH: EVQLVQSGAEVKKPGESLKISCKGAGYIFTHYWIAWVRQMPGKGLEWMGIVHPGDSDTRYSPSFQAQVTISADKSINTAYLQWSSLKASDTAIYFCARHGVHSGYSGYDRWDGHYYGMDVWGQGTTVTVSA VL: SYVLTQPPSVSVAPGKTARITCGGNNIGSKSVHWYQQKPGQAPVLVVYDGSERPSGIPERFSGSNSENTATLTISRVEAGDEADYYCQVWNDNSDSLVFGTGTEVTVL	binds
BD55-5267 (antibody, V domains shown) VH: QVQLQESGPGLVKPSGTLSLTCAVSGGSISSSNWWSWVRQPPGKGLEWIGEIYHSGSTNYNPSLKSRVTISVDKSKNKFSLKLSSVTAADTAVYFCARAGWIESGYDAFVGYFDYWGQGTLVTVSS VL: DIQMTQSPSSLSASVGDRVTITCRASQGISSSLAWYQQKPGKAPDLLLYAASGLESGVPSRFSGSGSGTDFTLSISSLQPEDFATYYCQQYYSPPRTFGQGTKLEIK	binds
BD55-5271 (antibody, V domains shown) VH: QVTLKESGPVLVKPTETLTLTCTVSGISLNNARMAVSWIRQPPGKALEWLAHILSNDEKSFSKSLTSRLTISKDSSKNQVVLRLTNMDPVDTGTYYCARIVYDSSSYYYSGDNWFDPWGQGTQVTVSS VL: SYELTQPPSVSVSPGQTARITCTGDAFPNQYAYWYQQKSGQAPVLVIYKDSERPSGIPERFSGSSAGTTVTLTISGVQAEDEADYYCQSADSRGVVFGGGTKVTVL	binds
